We go through 27 sequences from the supplement of paper PMC9170038.

This data set deals with MS2 coat protein. Description: apparent KD of MS2 coat protein; designed switch direction (-1 OFF switch, 1 ON switch): 1; higher = weaker reporter binding. The method, boiled down: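 Designed RNA switches were transcribed on Illumina chips by stalled E. coli RNA polymerase and titrated with SNAP-549-labelled MS2 coat protein from 0.7 or 1.5 nM, doubling to 3 µM. Step length ran from 0.8–1.5 h at the lowest concentration to 10–20 min at the highest. The apparent KD is the median over clusters for each design, from curve-fitted normalised cluster fluorescence.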

Setting [1] is: input ligand: microRNA oligo, concentration not stated.
Setting [2] is: Eterna round: R95, input ligand: FMN 200 uM.
Setting [3] is: Eterna round: R95, input ligand: microRNA oligo, concentration not stated.
Setting [4] is: Eterna round: R95, input ligand: none.

With “GUAGAACAUGAGGAUCACCCAUGUGAAGACGCAUGAGGAUAUAUACGUAAAUAGCAUACGAUAGAAGGCAUGAUAA [JR_SS001_Sub1703] (Eterna round: R96, puzzle: Same State 1)”, the “apparent KD of MS2 coat protein” value under setting [1] was found to be 40.6 nM.
For the sequence “UUCUCAUUUACAUGAGGAUCACCCAUGUUUUUUUGUCAGAGAUAGGAUAUAGUUCUCUCGUUUUUCUAGAAGGAUCUUUUUAUU [JR_SSNG3_Sub087] (Eterna round: R96, puzzle: Same State NG 3)”, the “apparent KD of MS2 coat protein” value runs as follows: (input ligand: FMN 200 uM) 79.7 nM; under setting [1], 53.2 nM; (input ligand: none) 71.7 nM.
With “GUAGCAUACCGAGGAUAUUCAUAUUAAAUACAUGAGGAUCACCCAUGUUAGGCCAAAAGGCCUUGGGAGAAGGCGGAAUGCUAC [Xeonanis - 20 Mod2] (Eterna round: R96, puzzle: Same State NG 2)”, the “apparent KD of MS2 coat protein” value stood at 20.9 nM (input ligand: FMN 200 uM), 33.6 nM under setting [1] and 63.5 nM (input ligand: none).
As for “AAUAUACAUGAGGAUCACCCAUGUUAGUAAAUGACAGGAUAUGCAAUAAAUAAAUAAUAAGCAGAAGGGUCUAAUA [JMF's solution 1] (puzzle: Same State 1)”, the “apparent KD of MS2 coat protein” value under setting [2] was determined as 13.7 nM, the “apparent KD of MS2 coat protein” value under setting [3] stood at 14.2 nM and the “apparent KD of MS2 coat protein” value under setting [4] is 16 nM.
Consider “GUGGUCAGACAUGAGGAUCACCCAUGUGGAAUAAAUAACGGUGAGGAUAUGCAAUAUAGGAUAUAGUAGAAGGCAUGAUUGGUG (Eterna round: R96, puzzle: Same State NG 3)”, for which the “apparent KD of MS2 coat protein” value came out at 164 nM (input ligand: FMN 200 uM), 104 nM under setting [1] and 132 nM (input ligand: none).
For “UGAAUAGUGAUAGGAUAUACAUGAGGAAUCCUCGUAGAAGGAUCACGACAUGAGGAUCACCCAUGUAGCCGUCCGUAGACGGCA [Mat - Same State NG 1 - JL mod - D59] (Eterna round: R96, puzzle: Same State NG 1)” the same measures were 353 nM, 66.4 nM and 231 nM.
Consider “GUAGCAUACCGAGGAUAUUCAUACAUGAGGAUCACCCAUGUUUAGGCCAGCAUUAGCUGGCCUUGGGAGAAGGCGGAAUGCUAC [Xeonanis - 20 Mod54] (Eterna round: R96, puzzle: Same State NG 2)”, for which the “apparent KD of MS2 coat protein” value (input ligand: FMN 200 uM) was 17.7 nM, the “apparent KD of MS2 coat protein” value under setting [1] stood at 13.5 nM and the “apparent KD of MS2 coat protein” value (input ligand: none) came out at 22.6 nM.
The like results for “GGUAUCAUCACAGGAUAUGCUAUCCUUUGGGUAGCAGAAGGGUGGAACAUGAGGAUCACCCAUGUGGUGCCAGGGCGUGAGCCC [JL SSNG1 1.89] (Eterna round: R96, puzzle: Same State NG 1)” were, in that order, 177 nM, 583 nM and 1880 nM.
Take “UAGAGAGGAAGCGAGGAUAUCGUGUUAGGUACAUGAGGAUCACCCAUGUUUUAAGUAGAGAUAGGCGAGAAGGCGCAGGAGAAGA [JR_SS2_Sub089] (puzzle: Same State 2)”: the “apparent KD of MS2 coat protein” value is, setting by setting: under setting [2], 38 nM; under setting [3], 20.1 nM; under setting [4], 28 nM.
On to “GGUAGGUUACUACCAAACAUGAGGAUCACCCAUGUUAAUGGGAAGGAUAUGGUACCUAUUUGGUACCAGAAGGUCCAAAUAAUU [Mat - Same State NG 3 - JL Mod - D97] (Eterna round: R96, puzzle: Same State NG 3)”, for which the “apparent KD of MS2 coat protein” value was 73.2 nM (input ligand: FMN 200 uM), 261 nM under setting [1] and 596 nM (input ligand: none).
Take “ACAGCGAAACAUGAGGAUCACCCAUGUAAAGAAUAGGUGAAUUGUUGCUCGUCUUGAAGAGAAGAGAAGAAGGAGAG [Victory 1] (puzzle: Sensor for hsa-mir-208a version 2)”: the “apparent KD of MS2 coat protein” value runs as follows: under setting [2], 192 nM; under setting [3], 101 nM; under setting [4], 180 nM.
For the sequence “CUAUCUACAGGUGUCAGUGCUCGUCUUAUACAUGAGGAUCACCCAUGUUAUAGCCCGGUGCUUGCGCUGGGCUGAUU [JL ViennaUCT Tearor mod 4] (puzzle: Sensor for hsa-mir-208a)”, the “apparent KD of MS2 coat protein” value reads like this: under setting [2], 54.8 nM; under setting [3], 14.2 nM; under setting [4], 66.9 nM.
Take “CCGAUUUAUGGAGGAUAUGGAGCCUUAUUGGCUCCAGAAGGUCAAUAAACAUGAGGAUCACCCAUGUCGGCGGUCAAUAGACCG [Eli NG1ss - 71] (Eterna round: R96, puzzle: Same State NG 1)”: the “apparent KD of MS2 coat protein” value is 103 nM (input ligand: FMN 200 uM), 84.4 nM under setting [1] and 180 nM (input ligand: none).
Regarding “GCUAGUAUUAUUGCUAACAUGAGGAUCACCCAUGUAUGUUGGCAGGAUAUCGUUUGCUUUGCAAACGAGAAGGGCUAAACUAGC [JL SSNG3 1.05] (Eterna round: R96, puzzle: Same State NG 3)”, the “apparent KD of MS2 coat protein” value stood at 25.8 nM (input ligand: FMN 200 uM), 65.4 nM under setting [1] and 71.7 nM (input ligand: none).
On to “AUCAAUCUAUCUGAGGAUAUCAUGAAAUAAACAUGAGGAUCACCCAUGUGCAGGAAAACUGCAUAUGAGAAGGCAGAUAGAUUGA [salish99_ss2_r3_019] (puzzle: Same State 2)”, for which the “apparent KD of MS2 coat protein” value turned out to be 63.9 nM under setting [2], 323 nM under setting [3] and 879 nM under setting [4].
With “CGUAGGUAGCUGGAGGAUAUUCGAGUGGUAACAUGAGGAUCACCCAUGUGGAUAGAGGAACAUGAGGAGAAGGCUAGCUGCCUGC [JL-ss2-3.20 JL mod] (puzzle: Same State 2)”, the “apparent KD of MS2 coat protein” value under setting [2] was 11.3 nM, the “apparent KD of MS2 coat protein” value under setting [3] was 26.6 nM and the “apparent KD of MS2 coat protein” value under setting [4] was determined as 30.6 nM.
For the sequence “UUUAGUUGCGGGCAGGAUAUGUAUUAAAAUACAUGAGGAUCACCCAUGUGAGAUCGAAAAGAUCUACAGAAGGGCCAAUCGCGAC [Laonerce - 24] (puzzle: Same State 2)”, the “apparent KD of MS2 coat protein” value under setting [2] came to 14 nM, the “apparent KD of MS2 coat protein” value under setting [3] was found to be 58.3 nM and the “apparent KD of MS2 coat protein” value under setting [4] was 85.8 nM.
As to “GCUCGUAUGAUGACCGACAUGAGGAUCACCCAUGUGUGUCGGUAGGAUAUCUAUAUUAAGGAUAUAGAGAAGGGCCCAACGAGC [SameState NG3 #18] (Eterna round: R96, puzzle: Same State NG 3)”, the “apparent KD of MS2 coat protein” value is, setting by setting: (input ligand: FMN 200 uM) 114 nM; under setting [1], 103 nM; (input ligand: none) 158 nM.
Turning to “GUGAGAUGUUCAGGAUAUUUCAGGAUAGUUAAUCCAAGGCCAUCACAUGAGGAUCACCCAUGUCGAGAGAAGGGAAUUCUCAGG [Eternabot solution 43] (Eterna round: R96, puzzle: Same State NG 2)”, the “apparent KD of MS2 coat protein” value (input ligand: FMN 200 uM) amounted to 378 nM, the “apparent KD of MS2 coat protein” value under setting [1] turned out to be 331 nM and the “apparent KD of MS2 coat protein” value (input ligand: none) was 433 nM.
Consider “AUAAGUUCGAUGCUCGUCUCUCCGUACUAACAUGAGGAUCACCCAUGUGAUCGGGCAGUAGCCCGAUCAGUAUGGCC [Bizain] (puzzle: Sensor for hsa-mir-208a)”, for which the “apparent KD of MS2 coat protein” value stood at 90.7 nM under setting [2], 68.3 nM under setting [3] and 114 nM under setting [4].
With “CCGCUCCGUGGAGGAUAUGGGCCUGCCCGGGAUACCGAGCCUAACACAUGAGGAUCACCCAUGUCCCAGAAGGCCGCUGGAGCC [Inusaron] (Eterna round: R96, puzzle: Same State NG 2)”, the “apparent KD of MS2 coat protein” value (input ligand: FMN 200 uM) came to 30.7 nM, the “apparent KD of MS2 coat protein” value under setting [1] was determined as 52.8 nM and the “apparent KD of MS2 coat protein” value (input ligand: none) was 90.7 nM.
Consider “CGAUCAUACUCAGGACGGAGAGUAGAGGAACAUGAGGAUCACCCAUGUAUGAGCUUUUUGCUCGUCAUGAACAGGAG [JR_SHM208a_Sub010] (puzzle: Sensor for hsa-mir-208a)”, for which the “apparent KD of MS2 coat protein” value was found to be 67.2 nM under setting [2], 59.7 nM under setting [3] and 121 nM under setting [4].
The like results for “UCUUGGUUUUUGCUCGUUUUUUGUGUUGAACAUGAGGAUCACCCAUGUAUUGUACGGUCCAAUUUAAUAAUGGUCCG [JMF 23] (puzzle: Sensor for hsa-mir-208a)” were, in that order, 26.3 nM, 14.3 nM and 26.9 nM.
For the sequence “UUAUACUCGAGAGGAUAUGCAGAGGAUCACCCUGCAGAAGGCUCGUUAGAGAGGAUAUGCAGAGGAUCACCCUGCAGAAGGCUC [pwkr ssNG DX.24] (Eterna round: R96, puzzle: Same State NG 1)”, the “apparent KD of MS2 coat protein” value (input ligand: FMN 200 uM) was 45.7 nM, the “apparent KD of MS2 coat protein” value under setting [1] stood at 16.1 nM and the “apparent KD of MS2 coat protein” value (input ligand: none) was found to be 37.4 nM.
Regarding “AUAAAACAUGAGGAUCACCCAUGUCAACAAAGUCGAGGAUAUGGGCAAAUAAAAUAAGAACCAGAAGGCGAAUAUU [salish99_ss1_r3_037] (Eterna round: R96, puzzle: Same State 1)”, the “apparent KD of MS2 coat protein” value is 43.8 nM (input ligand: FMN 200 uM), 262 nM under setting [1] and 261 nM (input ligand: none).
The like results for “AUCAAAGCGUGAGGAUAUAUGGGAACACGAGUCGUAGAAGGUACGUCAAUACAUGAGGAUCACCCAUGUAAAGAGGAGAACCUC [Eternabot solution 33] (Eterna round: R96, puzzle: Same State NG 1)” were, in that order, 60.1 nM, 32.9 nM and 45.2 nM.
The like results for “GCUCGAUGAUAGGCCUACAUGAGGAUCACCCAUGUGACUGGGCAGGAUAUCUAAAUGCAGAAUGUAGAGAAGGGCCCGUCGAGC [SameState NG3 #52] (Eterna round: R96, puzzle: Same State NG 3)” were, in that order, 269 nM, 69.5 nM and 409 nM.
